According to article PMC7494870, “Arrangement and symmetry of the fungal E3BP-containing core of the pyruvate dehydrogenase complex” (Nature Communications, 2020):
Blank lines part the entries; values can stand above or below the binder they belong to.

Legend:
[1] = biological target: T1, N. crassa PX (30-426), His-tagged, separately expressed (N. crassa, UniProt Q7RWS2 30-426); assay: pull-down; separately expressed tE2 and His-tagged PX variants, brief incubation, co-purified by Ni-NTA affinity
T1 construct: Protein X (PX), Neurospora crassa, residues 30-426 of uniprot Q7RWS2; His6 tag is cleavable with TEV; protein was either cleaved with TEV or eluted with imidazole depending on the purpose; also called full-length PX; source: E. coli Rosetta2 (DE3), pRSET vector, single expression, Ni-NTA
T1 sequence (looked up): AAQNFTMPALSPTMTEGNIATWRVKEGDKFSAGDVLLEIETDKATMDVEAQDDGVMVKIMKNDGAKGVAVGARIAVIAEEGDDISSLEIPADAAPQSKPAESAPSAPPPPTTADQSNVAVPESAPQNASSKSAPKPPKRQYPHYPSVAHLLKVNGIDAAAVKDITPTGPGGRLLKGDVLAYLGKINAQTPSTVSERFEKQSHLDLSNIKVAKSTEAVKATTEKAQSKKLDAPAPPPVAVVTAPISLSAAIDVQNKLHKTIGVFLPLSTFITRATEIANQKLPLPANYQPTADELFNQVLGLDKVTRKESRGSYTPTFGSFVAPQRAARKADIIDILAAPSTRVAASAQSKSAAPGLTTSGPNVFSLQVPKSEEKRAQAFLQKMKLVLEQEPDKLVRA

[2] = biological target: the molecule itself; assay: cryo-EM structure; single-particle cryo-EM of the reconstituted tE2 + PX30 recombinant subcomplex, icosahedral symmetry
[3] = biological target: the molecule itself; assay: cryo-EM structure; single-particle cryo-EM of the co-expressed tE2 + PX261 subcomplex, icosahedral symmetry
[4] = biological target: the molecule itself; assay: cryo-EM structure; single-particle cryo-EM of intact native PDC purified from N. crassa mitochondria; icosahedral and tetrahedral (classes X, Y) reconstructions
[5] = biological target: T2, Neurospora crassa protein X (endogenous, in the native PDC) (N. crassa (endogenous in N. crassa …, UniProt Q7RWS2 1-426)); assay: as above; conditions: both partners purified
T2 construct: Protein X (PX) of the pyruvate dehydrogenase complex, Neurospora crassa, uniprot Q7RWS2, locus NCU00050; Forms trimers inside the E2 core; also called PX; X-component; source: endogenous, PDC purified from N. crassa mitochondria (DDM lysis, sucrose cushion, sucrose gradient, SEC)
T2 sequence (looked up): T1 sequence (looked up)

binding result [1]: binds
B1: N. crassa E2 core-forming domain, tE2 (225-458), separately expressed (domain or fragment, UniProt P20285 225-458, looked up)
chain: AAYTDVPISGMRKTIAARLKESVTENPHFFVSTNLSVSKLLKLRQALNSSADGRYKLSVNDFLIKAMGIASKRVPTVNSSWRDGVIRQFETVDVSVAVATPNGLITPIVKGVEGKGLESISAAVKELAKKARDGKLKPEEYQGGSISISNMGMNPAVQSFTAIINPPQAAILAVGAPQKVAVPVENEDGTTGVSWDEQIIVTASFDHKVVDGAVGAEWIRELKKVIENPLELLL
notes: E2 core-forming domain, Neurospora crassa, residues 225-458 of uniprot P20285; His6 tag is cleavable with thrombin; PDB 6ZLO covers residues 227-458; source: E. coli Rosetta2 (DE3), pRSET vector, single expression
binding result [2]: binds

B2: N. crassa E2 core-forming domain, tE2 (225-458), untagged, co-expressed with PX constructs (domain or fragment, UniProt P20285 225-458, looked up)
chain: B1 chain
notes: E2 core-forming domain, Neurospora crassa, residues 225-458 of uniprot P20285; also called untagged E2 core-forming domain; source: E. coli Rosetta2 (DE3), petDuet dual-expression vector, co-expressed with His-tagged PX constructs, in lysate; co-purified on Ni-NTA
binding result [3]: binds

stoichiometry N [5]: ≤ 12 PX monomers per E2 core
B3: Neurospora crassa pyruvate dehydrogenase complex E2 (endogenous, core of the native PDC) (enzyme, UniProt P20285 29-458, looked up)
chain: ASYPPHTVVKMPALSPTMTSGGIGAWQKKPGDKIEPGEVLVEIETDKAQMDFEFQEEGVLAKILKDSGEKDVAVGNPIAILVEEGTDVNAFKDFTLKDAGGETSPAVPKDEPKNESTASAPTPAPTPAPEPENTSFTGRFQTALEREPNALPAAKRLAREKGIDLRNVKGSGPGGKITEEDVKKALASAPAAGAAAAAYTDVPISGMRKTIAARLKESVTENPHFFVSTNLSVSKLLKLRQALNSSADGRYKLSVNDFLIKAMGIASKRVPTVNSSWRDGVIRQFETVDVSVAVATPNGLITPIVKGVEGKGLESISAAVKELAKKARDGKLKPEEYQGGSISISNMGMNPAVQSFTAIINPPQAAILAVGAPQKVAVPVENEDGTTGVSWDEQIIVTASFDHKVVDGAVGAEWIRELKKVIENPLELLL
notes: E2 of the pyruvate dehydrogenase complex, Neurospora crassa, uniprot P20285; residues 232-458 identified in the native reconstruction; Icosahedral core of 60 E2 in the native complex; only the core-forming domain is ordered in the map; also called E2 core; PDC core; source: endogenous, PDC purified from N. crassa mitochondria (DDM lysis, sucrose cushion, sucrose gradient, SEC); copies: 60
stoichiometry N [4]: 60
